In paper PMC5577389:

Target: 6xHis-FN1, the first fibronectin type III repeat (FN1) of the neural cell adhesion molecule NCAM
Assay: ITC

6xHis-SUMO-PBR, ST8Sia-IV polybasic region peptide (residues 75-100) fused to an N-terminal 6xHis-SUMO tag (from UniProt Q92187 75-100)
Kd: 10.9 µM | dH: 0.991 kcal/mol | stoichiometry N: 1.06
